Measurements published in PMC3843118, “ABC transporter functions as a pacemaker for sequestration of plant glucosides in leaf beetles” (eLife, 2013).

Substrate: OCc1ccccc1O[C@@H]1O[C@H](CO)[C@@H](O)[C@H](O)[C@H]1O
Test: efflux of injected substrate from oocytes, HPLC-MS
Type: cell-based, Chrysomela populi
Conditions: Xenopus oocytes expressing CpMRP vs water-injected control, modified Barth's medium pH 7.4, room temperature, oocyte volume assumed 1 µl

B1: CpMRP (Chrysomela populi) (protein)
chain: MDNGYQLKYDNPRDKANFISKLFFGWMIGLVRKATRTGLEVGDLYKTREADKSKKLADLLEKNWTKELKRAKLKGTKPSLSRALLKTFTMEYMGWGLLFFIQFVVLRSILPLILSYLISLFQESDMDDMVDRTNAMYICSGILITITAISIFFLHHTNKGLTVVGMKARIAVSSLIYRKITRLNQTSLGETAAGQVVNILSNDVNRFDLVVLSLHCLWTLPIQVALLFYLLWRQVQISCLAGILSMMIICIPGQGYVGKLTGVLRFRVAKKTDTRVKLMNEVISGIQVIKMYAWEKSFEKLIKLMRADEIKDLTSTSYLRGLLLSCVVFIERLTMFLTVTCYVLLGNVITADKVFSMAQFFNILQYGIAILYPMAVSYGAETLISIKRLQDFLLLEERKTPSIETAEDNGIQLSDVSASWTADTRTLRDITLNLPPGTLCAVVGPVGAGKSSLLQLLLGELPLSSGTMSLAGTISYSSQEPWLFQSSVRKNVLFGEPYQSSWYKQVVKVCALEKDFDQFPQRDQTIVGERGVSLSGGQRARINLARAIYRKTDVYLMDDPLSAVDTHVGRHLFDECIYRHLRGKTRILATHQLQYLKNADVIVVMNEGRIEAQGSFEELSDSELDFTKLLVSADETKGESKKLSLVEEPKIDYIKRLSVRSIMSTQSEFIEMMEYGDTEELGVDGNAHPFKDYCKAPRNVCLLVVVIISLILAQAVCSGADYWSSFWTRQEEIRHSTRARPVSDSSEVIQLVPLGNQTISLDGNKYTNENRDFSFDTFFDQVFLDNRIYKLLKTNYSMGVYGFLIIAAIVFTIGRSVLFCKLTMQASTNLHSDMFHTLLKAPMRFFDTNPSGRVLNRFSKDMGAVDEILPRTLLESIQIMLVMCGILVNIAVANPYMLVAMVVMGVCFYFLSKWYVTTASNVKHLEGFTKSPVFSHVNSTLNGITTIRAFRAEEVLCEEFDDQQDVHTSSWYLTLSCIASFGLWMDIVCLLFLACVTFSFVLMHSTSSVNGSLVGLAISQCLILTGMLQHGMRQTSEVINQLTSVERIRQYTKIDTEGPFETPIEKKPLKGWPNRGRLEFRNLVLRYVAEDDPVLRNLTFTVLPGEKVGIVGRTGAGKSSLISALFRLAPTSGSILIDGVDSKVLGLTDLRMKISIIPQEPVLFSATMRYNLDPFDEFDDRSLWDALEQVELKDAVESLDIMVTEGGNNFSLGQRQLICLARAILRNNNILVLDEATANVDQRTDSFIQKTIRRNFEDCTVLTIAHRLNTIMDSDKVLVMHFGEMVEYDHPHILLQLPEGHFHKMVLETGPAIYAQLKDVAEKAYHKNSRL
notes: cRNA expressed in Xenopus laevis oocytes
B1 was tested, and the Km was 5.8 mM.
